Experiment [1] addresses p75 neurotrophin receptor (p75NTR), endogenous on rat cells (rat (endogenous in rat oligodendrocyte progenitor cells)) (UniProt P07174).
Experiment [2] addresses human TrkA on BALB/C 3T3-hTrkA cells (human) (UniProt P04629).
UniProt P04629, sequence (P04629 33-796): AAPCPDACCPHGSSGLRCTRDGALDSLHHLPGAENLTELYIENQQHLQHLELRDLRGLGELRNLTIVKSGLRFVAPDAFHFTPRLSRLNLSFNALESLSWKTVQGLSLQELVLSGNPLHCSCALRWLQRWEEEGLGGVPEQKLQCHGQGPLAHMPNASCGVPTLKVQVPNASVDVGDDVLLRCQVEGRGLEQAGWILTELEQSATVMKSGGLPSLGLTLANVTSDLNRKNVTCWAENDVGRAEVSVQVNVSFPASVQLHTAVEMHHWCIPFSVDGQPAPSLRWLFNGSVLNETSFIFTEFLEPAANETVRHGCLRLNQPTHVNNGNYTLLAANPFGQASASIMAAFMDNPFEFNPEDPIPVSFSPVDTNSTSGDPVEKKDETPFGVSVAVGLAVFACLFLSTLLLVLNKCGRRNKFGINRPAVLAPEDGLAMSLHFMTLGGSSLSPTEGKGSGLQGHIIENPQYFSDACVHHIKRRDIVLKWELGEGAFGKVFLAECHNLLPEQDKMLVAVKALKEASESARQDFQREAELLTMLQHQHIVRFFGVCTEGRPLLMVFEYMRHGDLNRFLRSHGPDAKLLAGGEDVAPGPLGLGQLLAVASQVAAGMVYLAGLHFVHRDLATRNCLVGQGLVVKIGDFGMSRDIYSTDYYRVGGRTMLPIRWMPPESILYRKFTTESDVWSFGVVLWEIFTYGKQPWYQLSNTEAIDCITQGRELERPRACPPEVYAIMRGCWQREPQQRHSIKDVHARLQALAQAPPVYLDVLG

UniProt P07174, sequence (P07174 30-425): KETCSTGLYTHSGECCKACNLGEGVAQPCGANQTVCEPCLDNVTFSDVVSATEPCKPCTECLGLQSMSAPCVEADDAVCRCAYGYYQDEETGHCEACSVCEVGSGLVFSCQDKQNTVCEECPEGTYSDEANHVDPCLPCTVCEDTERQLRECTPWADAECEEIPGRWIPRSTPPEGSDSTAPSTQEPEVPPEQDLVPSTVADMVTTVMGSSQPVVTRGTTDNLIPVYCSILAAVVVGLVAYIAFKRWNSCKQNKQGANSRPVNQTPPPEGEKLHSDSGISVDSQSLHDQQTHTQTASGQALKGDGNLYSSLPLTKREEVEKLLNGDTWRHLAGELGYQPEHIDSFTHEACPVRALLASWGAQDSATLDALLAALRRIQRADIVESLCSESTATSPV

Take “hNGFR100E, mature human NGF with the substitution R100E (from UniProt P01138 122-241) (ligand)”: the phosphorylation of c-jun at Ser63 in hippocampal cells (p75NTR dependent activation of the jnk kinase), 100 ng/ml (% reduction against hNGF) in experiment [1] amounted to 30. This substance yielded a phosphorylation of TrkA residue Tyr490 in BALB/C 3T3-hTrkA cells, 100 ng/ml, Western blot with site-specific anti-phosphoTrkA antibody (% reduction against hNGF) in experiment [2] of 70. Take “hNGFR100W, mature human NGF with the HSAN V substitution R100W (from UniProt P01138 122-241) (ligand)”: the phosphorylation of TrkA residue Tyr490 in BALB/C 3T3-hTrkA cells, 100 ng/ml, Western blot with site-specific anti-phosphoTrkA antibody (% reduction against hNGF) in experiment [2] stood at 70.

(Values after paper PMC3046150.)
